Numbered stars: 1 amine (or outer) side, 2 acyl side, 3 side chain; on linkers, the order of the positions; unused ones are H or OH. Square brackets hold non-standard residues; d marks the D form. Side chains are listed from the residue outwards. Ends that are not written are not given here. * marks the point of attachment. C20 diacid = O=C(O)CCCCCCCCCCCCCCCCCCC(=O)*; C18 diacid = O=C(O)CCCCCCCCCCCCCCCCC(=O)*; αMePhe(2-F) = C[C@](N)(Cc1ccccc1F)C(=O)O; γGlu = O=C(O)[C@H](CCC(=O)[*:2])N[*:1]; αMeF = C[C@](N)(Cc1ccccc1)C(=O)O; AEEA = NCCOCCOCC(=O)O; Aib = CC(C)(N)C(=O)O
Legend:
Experiment in all cases: cell-based or functional assay
human GLP-1 receptor = human GLP-1 receptor (human, UniProt P43220 24-463)
[1] = target: Pro-Link-tagged Human GLP-1R (human, UniProt P43220 24-463)
[2] = target: T1, human gastric inhibitory peptide receptor (GIPR) (human, UniProt P48546 22-466)
T1 sequence (looked up): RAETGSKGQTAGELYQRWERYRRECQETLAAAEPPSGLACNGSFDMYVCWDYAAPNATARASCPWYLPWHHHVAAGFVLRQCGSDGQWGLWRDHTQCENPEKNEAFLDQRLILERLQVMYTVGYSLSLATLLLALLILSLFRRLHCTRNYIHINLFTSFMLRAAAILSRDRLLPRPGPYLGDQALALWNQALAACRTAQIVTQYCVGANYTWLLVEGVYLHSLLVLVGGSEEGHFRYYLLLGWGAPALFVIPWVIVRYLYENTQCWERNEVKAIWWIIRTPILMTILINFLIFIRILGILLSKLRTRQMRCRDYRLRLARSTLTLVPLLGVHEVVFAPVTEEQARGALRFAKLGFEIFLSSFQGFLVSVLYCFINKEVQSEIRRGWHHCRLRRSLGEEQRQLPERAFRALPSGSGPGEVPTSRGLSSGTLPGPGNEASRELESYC

[3] = target: human GLP-1 receptor (GLP-1R) (human, UniProt P43220 24-463)

B1: Example 266 (peptide)
peptide: Y[Aib]EGTFTSDYSILLDKK([AEEA-AEEA-γGlu-C18 diacid])AQ[Aib]AFIEYLIEGGPSSG-NH2
modifications: N-terminus assumed
SMILES: CC[C@H](C)[C@H](NC(=O)[C@H](CC(C)C)NC(=O)[C@H](Cc1ccc(O)cc1)NC(=O)[C@H](CCC(=O)O)NC(=O)[C@@H](NC(=O)[C@H](Cc1ccccc1)NC(=O)[C@H](C)NC(=O)C(C)(C)NC(=O)[C@H](CCC(N)=O)NC(=O)[C@H](C)NC(=O)[C@H](CCCCNC(=O)COCCOCCNC(=O)COCCOCCNC(=O)CC[C@H](NC(=O)CCCCCCCCCCCCCCCCC(=O)O)C(=O)O)NC(=O)[C@H](CCCCN)NC(=O)[C@H](CC(=O)O)NC(=O)[C@H](CC(C)C)NC(=O)[C@H](CC(C)C)NC(=O)[C@@H](NC(=O)[C@H](CO)NC(=O)[C@H](Cc1ccc(O)cc1)NC(=O)[C@H](CC(=O)O)NC(=O)[C@H](CO)NC(=O)[C@@H](NC(=O)[C@H](Cc1ccccc1)NC(=O)[C@@H](NC(=O)CNC(=O)[C@H](CCC(=O)O)NC(=O)C(C)(C)NC(=O)[C@@H](N)Cc1ccc(O)cc1)[C@@H](C)O)[C@@H](C)O)[C@@H](C)CC)[C@@H](C)CC)C(=O)N[C@@H](CCC(=O)O)C(=O)NCC(=O)NCC(=O)N1CCC[C@H]1C(=O)N[C@@H](CO)C(=O)N[C@@H](CO)C(=O)NCC(N)=O
Human GLP-1 receptor
  hGLP1R GTPgS % Top: 63.4%
  hGLP1R GTPgS Rel EC50: 0.865 nM
[1]
  hGLP1R B-Arrestin2 % Top: 17.1%
  hGLP1R B-Arrestin2 Rel EC50: 16 nM

B2: Example 1 (peptide)
peptide: YXEGTXTSDYSIXLDEKAQXEFIXYLIEGGPSSGAPPPS
modifications: Aib2, αMeF(2F)6, αMeL13, K17 conjugated to (2-[2-(2-Amino-ethoxy)-ethoxy]-acetyl)2-(γ-Glu)-CO-(CH2)18-CO2H, Aib20, D-Glu24, C-terminal amide (NH2)
Human GLP-1 receptor
  hGLP1R GTPgS % Top: 91.1%
  hGLP1R GTPgS Rel EC50: 0.235 nM
[1]
  hGLP1R B-Arrestin2 % Top: 105%
  hGLP1R B-Arrestin2 Rel EC50: 5 nM

B3: Example 4 (peptide)
peptide: YXEGTXTSDXSIXLDXKAQXEFIXXLIEGGPSSGAPPPS
modifications: Aib2, αMeF(2F)6, 4Pal10, αMeL13, Orn16, K17 conjugated to (2-[2-(2-Amino-ethoxy)-ethoxy]-acetyl)2-(γ-Glu)-CO-(CH2)16-CO2H, Aib20, D-Glu24, αMeY25, C-terminal amide (NH2)
Human GLP-1 receptor
  hGLP1R GTPgS % Top: 86.9%
  hGLP1R GTPgS Rel EC50: 0.245 nM
[1]
  hGLP1R B-Arrestin2 % Top: 92.4%
  hGLP1R B-Arrestin2 Rel EC50: 4.8 nM

B4: Example 234 (peptide)
peptide: YXEGTXTSDXSILLDXKAQXEFIXYLIEGGPSSGAPPPS
modifications: Y-Aib-EGT-αMeF(2F)-TSD-4Pal-SILLD-Dab-K((2-[2-(2-Amino-ethoxy)-ethoxy]-acetyl)2-(γ-Glu)-CO-(CH2)16-CO2H)AQ-Aib-EFI-(D-Glu)-YLIEGGPSSGAPPPS-NH2
[2]
  hGIPR cAMP EC50 ratio: 3.83
  hGIPR cAMP Rel EC50: 0.0372 nM
[3]
  hGLP1R cAMP EC50 ratio: 0.317
  hGLP1R cAMP Rel EC50: 0.0926 nM

B5: Example 357 (peptide)
peptide: XXEGTFTSDYSIXLDXKAQXAFIXYLIEGGPSSGAPPPS
modifications: D-Tyr1, Aib2, αMeL13, Orn16, K17 conjugated to (2-[2-(2-Amino-ethoxy)-ethoxy]-acetyl)2-(γ-Glu)-CO-(CH2)18-CO2H, Aib20, D-Glu24, C-terminal amide (NH2)
[1]
  hGLP1R B-Arrestin2 % Top: 18.2%
  hGLP1R B-Arrestin2 Rel EC50: 118 nM

B6: Example 356 (peptide)
peptide: XXEGTFTSDYSIXLDKKAQXAFIXYLIEGGPSSGAPPPS
modifications: D-Tyr1, Aib2, αMeL13, K17 conjugated to (2-[2-(2-Amino-ethoxy)-ethoxy]-acetyl)2-(γ-Glu)-CO-(CH2)18-CO2H, Aib20, D-Glu24, C-terminal amide (NH2)
[1]
  hGLP1R B-Arrestin2 Rel EC50: > 10500 nM

B7: Example 224 (peptide)
peptide: YXEGTXTSDYSIXLDEKAQXEFIXYLIEGGPSSGAPPPS
modifications: Y-Aib-EGT-αMeF(2F)-TSDYSI-Aib-LDEK((2-[2-(2-Amino-ethoxy)-ethoxy]-acetyl)2-(γ-Glu)-CO-(CH2)18-CO2H)AQ-Aib-EFI-(D-Glu)-YLIEGGPSSGAPPPS-NH2
[2]
  hGIPR cAMP EC50 ratio: 3.52
  hGIPR cAMP Rel EC50: 0.0545 nM
[3]
  hGLP1R cAMP EC50 ratio: 1.06
  hGLP1R cAMP Rel EC50: 0.0349 nM

B8: Example 2 (peptide)
peptide: YXEGTXTSDYSIXLDXKAQXEFIXYLIEGGPSSGAPPPS
modifications: Aib2, αMeF(2F)6, αMeL13, Orn16, K17 conjugated to (2-[2-(2-Amino-ethoxy)-ethoxy]-acetyl)2-(γ-Glu)-CO-(CH2)16-CO2H, Aib20, D-Glu24, C-terminal amide (NH2)
Human GLP-1 receptor
  hGLP1R GTPgS % Top: 95.9%
  hGLP1R GTPgS Rel EC50: 0.642 nM
[1]
  hGLP1R B-Arrestin2 % Top: 96.1%
  hGLP1R B-Arrestin2 Rel EC50: 8.82 nM

B9: Example 220 (peptide)
peptide: Y[Aib]EGT[αMePhe(2-F)]TSDYSIXLDEK([AEEA-AEEA-γGlu-C18 diacid])AQ[Aib]EFI[dE]YLIEGG-NH2
modifications: not fully specified (residue 13); printed as Y-Aib-EGT-αMeF(2F)-TSDYSI-αMeF-LDEK((2-[2-(2-Amino-ethoxy)-ethoxy]-acetyl)2-(γ-Glu)-CO-(CH2)16-CO2H)AQ-Aib-EFI-(D-Glu)-YLIEGG-NH2
[2]
  hGIPR cAMP EC50 ratio: 6.3
  hGIPR cAMP Rel EC50: 0.0315 nM
[3]
  hGLP1R cAMP EC50 ratio: 1.36
  hGLP1R cAMP Rel EC50: 0.0312 nM

B10: Example 267 (peptide)
peptide: Y[Aib]EGTFTSDYSILLDKK([AEEA-AEEA-γGlu-C18 diacid])AQ[Aib]AFIEYLIEGG-NH2
modifications: N-terminus assumed
SMILES: CC[C@H](C)[C@H](NC(=O)[C@H](CC(C)C)NC(=O)[C@H](Cc1ccc(O)cc1)NC(=O)[C@H](CCC(=O)O)NC(=O)[C@@H](NC(=O)[C@H](Cc1ccccc1)NC(=O)[C@H](C)NC(=O)C(C)(C)NC(=O)[C@H](CCC(N)=O)NC(=O)[C@H](C)NC(=O)[C@H](CCCCNC(=O)COCCOCCNC(=O)COCCOCCNC(=O)CC[C@H](NC(=O)CCCCCCCCCCCCCCCCC(=O)O)C(=O)O)NC(=O)[C@H](CCCCN)NC(=O)[C@H](CC(=O)O)NC(=O)[C@H](CC(C)C)NC(=O)[C@H](CC(C)C)NC(=O)[C@@H](NC(=O)[C@H](CO)NC(=O)[C@H](Cc1ccc(O)cc1)NC(=O)[C@H](CC(=O)O)NC(=O)[C@H](CO)NC(=O)[C@@H](NC(=O)[C@H](Cc1ccccc1)NC(=O)[C@@H](NC(=O)CNC(=O)[C@H](CCC(=O)O)NC(=O)C(C)(C)NC(=O)[C@@H](N)Cc1ccc(O)cc1)[C@@H](C)O)[C@@H](C)O)[C@@H](C)CC)[C@@H](C)CC)C(=O)N[C@@H](CCC(=O)O)C(=O)NCC(=O)NCC(N)=O
Human GLP-1 receptor
  hGLP1R GTPgS % Top: 62.3%
  hGLP1R GTPgS Rel EC50: 0.867 nM
[1]
  hGLP1R B-Arrestin2 % Top: 16.5%
  hGLP1R B-Arrestin2 Rel EC50: 9.01 nM

B11: Example 360 (peptide)
peptide: XXEGTFTSDYSIXLDXKAQXAFVEYLIEGGPSSGAPPPS
modifications: D-Tyr1, Aib2, αMeL13, Orn16, K17 conjugated to (2-[2-(2-Amino-ethoxy)-ethoxy]-acetyl)2-(γ-Glu)-CO-(CH2)18-CO2H, Aib20, C-terminal amide (NH2)
[1]
  hGLP1R B-Arrestin2 % Top: 25.8%
  hGLP1R B-Arrestin2 Rel EC50: 39.5 nM

B12: Example 362 (peptide)
peptide: XXEGTFTSDYSIXLDXKAQXAFVXYLIAGGPSSGAPPPS
modifications: D-Tyr1, Aib2, αMeL13, Orn16, K17 conjugated to (2-[2-(2-Amino-ethoxy)-ethoxy]-acetyl)2-(γ-Glu)-CO-(CH2)18-CO2H, Aib20, D-Glu24, C-terminal amide (NH2)
[1]
  hGLP1R B-Arrestin2 Rel EC50: > 11000 nM

B13: Example 364 (peptide)
peptide: XXEGTFTSDYSIXLDXKAQXAFVXYLIAGGPSSGAPPPS
modifications: D-Tyr1, Aib2, αMeL13, Orn16, K17 conjugated to (2-[2-(2-Amino-ethoxy)-ethoxy]-acetyl)2-(γ-Glu)-CO-(CH2)16-CO2H, Aib20, D-Glu24, C-terminal amide (NH2)
[1]
  hGLP1R B-Arrestin2 Rel EC50: > 12000 nM

B14: Example 228 (peptide)
peptide: Y[Aib]EGT[αMeF]TSDYSIXLDKK([AEEA-AEEA-γGlu-C20 diacid])AQ[Aib]EFI[dE]YLIEGGPSSG-NH2
modifications: not fully specified (residue 13); printed as Y-Aib-EGT-αMeF-TSDYSI-αMeF-LDKK((2-[2-(2-Amino-ethoxy)-ethoxy]-acetyl)2-(γ-Glu)-CO-(CH2)18-CO2H)AQ-Aib-EFI-(D-Glu)-YLIEGGPSSG-NH2
[2]
  hGIPR cAMP EC50 ratio: 3.86
  hGIPR cAMP Rel EC50: 0.0503 nM
[3]
  hGLP1R cAMP EC50 ratio: 1.1
  hGLP1R cAMP Rel EC50: 0.0282 nM

B15: Example 338 (peptide)
peptide: FXEGTFTSDYSIXLDKKAQXEFIEYLIAGGPSSGAPPPS
modifications: not fully specified; Aib2, αMeL13, K17 conjugated to (2-[2-(2-Amino-ethoxy)-ethoxy]-acetyl)2-(γ-Glu)-CO-(CH2)18-CO2H, Aib20, C-terminal amide (NH2)
[1]
  hGLP1R B-Arrestin2 % Top: 47%
  hGLP1R B-Arrestin2 Rel EC50: 18.9 nM

B16: Example 361 (peptide)
peptide: XXEGTFTSDYSIXLDKKAQXAFVXYLIAGGPSSGAPPPS
modifications: D-Tyr1, Aib2, αMeL13, K17 conjugated to (2-[2-(2-Amino-ethoxy)-ethoxy]-acetyl)2-(γ-Glu)-CO-(CH2)18-CO2H, Aib20, D-Glu24, C-terminal amide (NH2)
[1]
  hGLP1R B-Arrestin2 % Top: 20.2%
  hGLP1R B-Arrestin2 Rel EC50: 269 nM

Source: US20220048967A1 (published 2022)
